Kd data for 1 substance are collected here from patent publication US20020151473A1.

This test addresses IgG. As to the kind of experiment: microcalorimetry and surface plasmon resonance (same value stated for both). (SPR reads the build-up and loss of mass on a sensor chip optically.)

In general, Kd refers to the equilibrium constant for the complex coming apart. “cyclized (locked helix) peptide FNM(5)QQRRFY(6)ALH” had a dissociation constant (Kd) of 100 µM.
